Measurements reported in patent publication US20250230242A1, “PHARMACEUTICAL COMPOSITION OF ANTI-TIM-3 ANTIBODY AND HYPOMETHYLATING AGENT” (NANJING SHUNXIN PHARMACEUTICALS CO., LTD. OF CHIATAI …, priority 2022, published 2025).
One block for each molecule: values may come before it.

Experiments:
Daudi cells [1] = assay: CDC against Daudi cells; type: cell-based; conditions: 10 or 100 μg/mL, 10% human serum, FIG. 4
Description: (§1) CHO-S-HuTIM-3 cells and Daudi cells (Shanghai Cell Bank of Chinese Academy of Sciences) were inoculated into a 96-well plate. […] Finally, CCK-8 reagent (Dojindo Laboratories) was added and reacted for 4 h. The OD value was measured at a wavelength of 450 nm using a microplate reader, and the lysis rate (%) was calculated.

Daudi cells [2] = assay: ADCC against Daudi cells; type: cell-based; conditions: 1 or 10 μg/mL, effector cells PBMC, FIG. 3
Description: (§2) After the reaction was completed, the mixture was centrifuged, and the supernatant was collected and measured for fluorescence values at 490 nm as excitation wavelength and 515 nm as emission wavelength. The cells were lysed directly with 0.1% Triton X-100 and centrifuged, and then the supernatant was collected to determine the total fluorescence value. The lysis rate (%) was calculated based on the fluorescence value.

CHO-S-HuTIM-3 cells [3] = assay: CDC against CHO-S-HuTIM-3 cells; type: cell-based; conditions: 10 or 100 μg/mL, 10% human serum, FIG. 4
Description: as §1

CHO-S-HuTIM-3 cells [4] = assay: ADCC against CHO-S-HuTIM-3 cells; type: cell-based; conditions: 10 or 100 μg/mL, effector cells PBMC, FIG. 3
Description: as §2

[5] = target: T1, CHO-S-HuTIM-3 cells highly expressing human TIM-3 (Homo sapiens, UniProt Q8TDQ0); assay: Binding to cells highly expressing human TIM-3 (cell ELISA)
T1 construct: expressed in transfected cells; host or cells: CHO-S
Description: The human TIM-3 gene was transfected into CHO-S cells, and the cells were incubated in an incubator at 37° C. with 5% CO2 using a Dynamis AGT medium (containing 4 mM glutamic acid and 3 μg/mL Puromycin) to give CHO-S-HuTIM-3 cells. […] After the reaction was stopped with H2SO4, the OD value was measured at a wavelength of 450 nm using a full-function microplate reader Synergy H4. The binding EC50 was calculated based on the OD value.

[6] = target: T2, human TIM-3 on CHO-S-HuTIM-3 cells (human, UniProt Q8TDQ0 22-301); assay: cell ELISA on CHO-S-HuTIM-3 cells, anti-human kappa-HRP
T2 construct: whole, on cells; Human TIM-3 gene transfected into CHO-S cells; also called CHO-S-HuTIM-3 cells highly expressing human TIM-3

[7] = target: T3, cynomolgus monkey TIM-3 recombinant protein (Acro) (cynomolgus monkey, UniProt A0A2K5U3G7 22-193); assay: ELISA, h50B5 coated at 2 µg/mL, cynomolgus TIM-3 titrated, Anti-His HRP
T3 construct: Bought recombinant protein; His tag implied only by the Anti-His HRP detection; also called cynomolgus monkey TIM-3 protein
T3 sequence: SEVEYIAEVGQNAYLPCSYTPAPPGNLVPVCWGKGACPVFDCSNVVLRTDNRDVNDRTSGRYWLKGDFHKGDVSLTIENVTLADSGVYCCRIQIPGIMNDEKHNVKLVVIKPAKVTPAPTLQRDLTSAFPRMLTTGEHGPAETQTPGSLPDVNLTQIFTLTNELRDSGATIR

[8] = target: T4, human TIM-3 recombinant protein (R&D) (human, UniProt Q8TDQ0 22-200); assay: ELISA, human TIM-3 coated, h50B5 titrated, anti-human kappa-HRP
T4 construct: Bought recombinant protein; also called human TIM-3 protein

Molecule: Rituxan®: positive control for ADCC and CDC with Daudi cells as target cells
CDC against Daudi cells (Daudi cells [1]): exhibited significant CDC
ADCC against Daudi cells (Daudi cells [2]): exhibited significant ADCC

EC50 of binding to CHO-S-HuTIM-3 cells ([5]; FIG. 1): 6815.5 ± 166.2 ng/mL
maximum binding Emax (OD450), CHO-S-HuTIM-3 cells ([5]; FIG. 1, OD450): 0.26±0.05
Molecule: TSR022: anti-TIM-3 antibody used as benchmark, heavy chain SEQ ID NO: 22, light chain SEQ ID NO: 23 [reference compound]
CDC against CHO-S-HuTIM-3 cells (CHO-S-HuTIM-3 cells [3]): did not show significant CDC
ADCC against CHO-S-HuTIM-3 cells (CHO-S-HuTIM-3 cells [4]): did not show significant ADCC

EC50 [6]: 6.82 µg/mL
B1: anti-TIM-3 antibody TSR022 (antibody, human IgG4 S228P, kappa, V domains shown)
VH: EVQLLESGGGLVQPGGSLRLSCAAASGFTFSSYDMSWVRQAPGKGLDWVSTISGGGTYTYYQDSVKGRFTISRDNSKNTLYLQMNSLRAEDTAVYYCASMDYWGQGTTVTVSS
VL: DIQMTQSPSSLSASVGDRVTITCRASQSIRRYLNWYHQKPGKAPKLLIYGASTLQSGVPSRFSGSGSGTDFTLTISSLQPEDFAVYYCQQSHSAPLTFGGGTKVEIKR
notes: Benchmark antibody, prepared in the same way as h50B5

EC50 [7]: 1.64 µg/mL
EC50 [8]: 0.291 µg/mL
EC50 [6]: 1.46 µg/mL
B2: humanized anti-TIM-3 antibody h50B5 (antibody, human IgG4 S228P, kappa, V domains shown)
VH: QVQLVQSGAEVKKPGASVKVSCKASGYSFTGYTINWVRQAPGQGLEWMGLFNPYNGGTTYAQKFQGRVTMTVDKSTSTVYMELSSLRSEDTAVYYCARRYYGYDAMDYWGQGTLVTVSS
VL: DIQMTQSPSSLSASVGDRVTITCKSSQSVLYSSNQKNHLAWYQQKPGKAPKLLIYWASTRESGVPSRFSGSGSGTDFTLTISSLQPEDFATYYCHQYLSSYTFGQGTKLEIKR
notes: Humanized from mouse mAb 50B5 by CDR grafting; human IgG4 heavy chain constant region and human light chain constant region
